From publication PMC12017989, “Carbohydrate deacetylase, a key enzyme in oxidative chitin degradation, is evolutionarily linked to amino acid deacetylase [drawing 1]” (The Journal of Biological Chemistry, 2025)

What was measured:
[1] = molecular target: T1, AfDam (Alcaligenes faecalis, UniProt Q9AGH8); assay: deacetylase activity assay; assay type: biochemical; conditions: 10 mM substrate, 10 mM Bis-Tris pH 7.0, 40 °C
T1 sequence (Q9AGH8 1-484): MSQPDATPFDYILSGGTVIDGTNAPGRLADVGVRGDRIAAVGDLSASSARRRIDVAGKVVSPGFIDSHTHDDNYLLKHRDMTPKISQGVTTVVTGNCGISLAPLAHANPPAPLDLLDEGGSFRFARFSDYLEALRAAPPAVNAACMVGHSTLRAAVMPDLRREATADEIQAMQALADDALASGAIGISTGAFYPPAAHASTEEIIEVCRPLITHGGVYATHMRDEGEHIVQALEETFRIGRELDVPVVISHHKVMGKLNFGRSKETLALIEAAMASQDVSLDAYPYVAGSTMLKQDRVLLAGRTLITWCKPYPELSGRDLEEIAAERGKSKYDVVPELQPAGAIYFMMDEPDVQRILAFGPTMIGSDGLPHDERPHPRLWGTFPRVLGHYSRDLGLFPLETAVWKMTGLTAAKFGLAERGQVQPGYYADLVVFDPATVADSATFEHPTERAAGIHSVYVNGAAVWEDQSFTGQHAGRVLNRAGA

[2] = molecular target: T2, BbDam (Bordetella bronchiseptica, UniProt A0A0H3LXD5); assay: deacetylase activity assay; assay type: biochemical; conditions: 10 mM substrate, 50 mM Hepes pH 8.0, 30 °C
T2 construct: gene BB3285

[3] = molecular target: T3, PpOngB (Pseudoalteromonas prydzensis, UniProt Z9WEX2YQL1, D368A); assay: X-ray crystal structure, […] Å; assay type: binding; conditions: inactive mutant cocrystallised; active site, open-chain aldonic acid coordinating zinc
T3 construct: pET-22b, His tag; E. coli BL21(DE3); residues 7-482 seen in crystal; one Zn
T3 sequence (Z9WEX2YQL1 1-489 D368A): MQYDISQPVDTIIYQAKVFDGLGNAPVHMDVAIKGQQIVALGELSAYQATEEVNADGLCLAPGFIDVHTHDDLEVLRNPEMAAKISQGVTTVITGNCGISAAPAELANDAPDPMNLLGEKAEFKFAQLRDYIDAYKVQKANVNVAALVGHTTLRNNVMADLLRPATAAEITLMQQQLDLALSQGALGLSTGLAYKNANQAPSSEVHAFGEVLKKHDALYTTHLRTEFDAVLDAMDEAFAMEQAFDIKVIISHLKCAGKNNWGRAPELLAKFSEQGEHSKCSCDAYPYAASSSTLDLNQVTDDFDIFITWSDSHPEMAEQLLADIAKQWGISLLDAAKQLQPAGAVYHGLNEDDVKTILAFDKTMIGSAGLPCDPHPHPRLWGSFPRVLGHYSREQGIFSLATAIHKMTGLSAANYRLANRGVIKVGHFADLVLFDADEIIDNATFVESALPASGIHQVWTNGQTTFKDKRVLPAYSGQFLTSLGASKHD

[4] = test system: CC(=O)N[C@@H](C(=O)O)[C@@H](O)[C@H](O)[C@H](O)CO; assay: purified protein; conditions: 10 mM Bis-Tris pH 7.5, 30 °C, 2-120 mM substrate, Zn enzyme
Source text: ninhydrin assay of primary amine, Michaelis-Menten fit on PaOngB

[5] = substrate: CC(=O)N[C@@H](C(=O)O)[C@@H](O)[C@H](O)[C@H](O)CO; assay: ninhydrin assay of primary amine, Michaelis-Menten fit; assay type: biochemical, Pseudoalteromonas prydzensis; conditions: 10 mM Bis-Tris pH 7.5, 30 °C, 2-120 mM substrate, Zn enzyme
Source text: ninhydrin assay of primary amine, Michaelis-Menten fit on PpOngB

[6] = substrate: CC(=O)N[C@@H](C(=O)O)[C@@H](O)[C@H](O)[C@H](O)CO; assay: as above; assay type: biochemical, Pseudoalteromonas maricaloris; conditions: 10 mM Bis-Tris pH 7.5, 30 °C, 2-120 mM substrate, Zn enzyme
Source text: ninhydrin assay of primary amine, Michaelis-Menten fit on PfOngB

T2 sequence (A0A0H3LXD5 entry or part of it): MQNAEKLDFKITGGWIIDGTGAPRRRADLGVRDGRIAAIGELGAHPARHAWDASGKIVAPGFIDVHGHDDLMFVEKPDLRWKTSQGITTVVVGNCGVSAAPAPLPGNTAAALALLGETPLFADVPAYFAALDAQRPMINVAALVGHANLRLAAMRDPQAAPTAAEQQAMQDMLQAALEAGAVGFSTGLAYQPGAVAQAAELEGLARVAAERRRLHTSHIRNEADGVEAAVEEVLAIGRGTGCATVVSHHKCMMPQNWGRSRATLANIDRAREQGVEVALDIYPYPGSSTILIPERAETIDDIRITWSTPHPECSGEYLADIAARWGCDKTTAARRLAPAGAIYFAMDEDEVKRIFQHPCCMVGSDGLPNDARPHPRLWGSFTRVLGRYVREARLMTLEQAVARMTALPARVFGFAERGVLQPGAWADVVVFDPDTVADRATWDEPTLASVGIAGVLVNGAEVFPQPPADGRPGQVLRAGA

**Q.** For CSCC[C@@H](NC(C)=O)C(=O)O [N-acetyl-D-methionine], which deacetylase activity assay [1] is on record?
**A.** The deacetylase activity assay was “enzymatic activities of AfDam and its mutants”.

**Q.** For CC(=O)N[C@H](CCC(=O)O)C(=O)O [N-acetyl-D-glutamate], which deacetylase activity assay [2] is on record?
**A.** Its deacetylase activity assay is “enzymatic activities of BbDam and its mutants”.

**Q.** CC(=O)N[C@@H](C(=O)O)[C@@H](O)[C@H](O)[C@H](O)CO [GlcNAc1A, 2-(acetylamino)-2-deoxy-D-gluconic acid] was tested. Which “X-ray crystal structure, 2.29 Å” value [3] did it give?
**A.** The value was “crystal structure of PpOngB in complex with GlcNAc1A (the PpOngB-GlcNAc1A complex)”.

**Q.** How did the Km [4] turn out when PaOngB (Pseudoalteromonas arabiensis) was run?
**A.** Its Km is 9.1 ± 0.8 mM.

**Q.** And the Vmax [4]?
**A.** Its Vmax is 6.3 µmol/min/mg.

**Q.** What about the kcat [4] of the same molecule?
**A.** The kcat was 5.5 ± 0.3 s⁻¹.

**Q.** And the kcat/Km [4]?
**A.** The kcat/Km was 600 M⁻¹ s⁻¹.

B1: PpOngB (Pseudoalteromonas prydzensis) (protein)
chain: MQYDISQPVDTIIYQAKVFDGLGNAPVHMDVAIKGQQIVALGELSAYQATEEVNADGLCLAPGFIDVHTHDDLEVLRNPEMAAKISQGVTTVITGNCGISAAPAELANDAPDPMNLLGEKAEFKFAQLRDYIDAYKVQKANVNVAALVGHTTLRNNVMADLLRPATAAEITLMQQQLDLALSQGALGLSTGLAYKNANQAPSSEVHAFGEVLKKHDALYTTHLRTEFDAVLDAMDEAFAMEQAFDIKVIISHLKCAGKNNWGRAPELLAKFSEQGEHSKCSCDAYPYAASSSTLDLNQVTDDFDIFITWSDSHPEMAEQLLADIAKQWGISLLDAAKQLQPAGAVYHGLNEDDVKTILAFDKTMIGSDGLPCDPHPHPRLWGSFPRVLGHYSREQGIFSLATAIHKMTGLSAANYRLANRGVIKVGHFADLVLFDADEIIDNATFVESALPASGIHQVWTNGQTTFKDKRVLPAYSGQFLTSLGASKHD
notes: pET-22b, His tag; E. coli BL21(DE3); residues 7-482 seen in crystal; one Zn
**Q.** Which Km [5] does the source give for B1 here?
**A.** The Km was 9.8 ± 0.8 mM.

**Q.** What about the Vmax [5] of the same molecule?
**A.** The Vmax was 17.4 µmol/min/mg.

**Q.** What about the kcat [5] of the same molecule?
**A.** The kcat was 15.4 ± 1.3 s⁻¹.

**Q.** What about the kcat/Km [5] of the same molecule?
**A.** Its kcat/Km is 1600 M⁻¹ s⁻¹.

B2: PfOngB (Pseudoalteromonas maricaloris) (protein)
chain: MLSSSPYVDTLIQGATVYFEPDSEAQVVDVAISKDKIVALGNCSHLQALQCIDATGLVLAPGFIDVHTHDDLEVLRGPYMLSKVSQGVTTVIAGNCGISAVPYCADQAPLDPINLLGEQSEFAYRELQDYQHAFSKAAPSVNLATLVGHTTLRAQVMTDLSQAANAQELEQMKTLLHQAMAQGAIGFSTGLAYYNAKGASQAEVNALAEVVTPFDGIYTTHLRTEFQGVIRAMDEAFATAEHAKLPLVISHIKCAGRENWGRAPEVLAHFELHRKTHPVSCDCYPYAASSSTLDLNQVTEETDIFITWSESHPELAQQSLANIATQWQVSQRDAAKRLQPAGAVYHCMLEDDVQRFVSYEHSMVGSDGLPCDPHPHPRLWGTFPRVLGHYCREQQSLPLALAIHKMTALPAARFKLRQRGNIQIGYFADLVLFDPNRVLDQASYSNPKQLASGIVKVWVNGKLSYVEGANADTIVDFGRAGRFLTRQN
notes: recombinant, cloned like PpOngB (pET-22b, His tag)
**Q.** With B2 as the molecule, how does the Km [6] read?
**A.** Its Km is 17.2 ± 1.0 mM.

**Q.** And the Vmax [6]?
**A.** Its Vmax is 13.4 µmol/min/mg.

**Q.** And the kcat [6]?
**A.** Its kcat is 11.9 ± 0.7 s⁻¹.

**Q.** What about the kcat/Km [6] of the same molecule?
**A.** The kcat/Km was 700 M⁻¹ s⁻¹.

B3: PpOngB (Pseudoalteromonas prydzensis; Q298A) (protein)
chain: MQYDISQPVDTIIYQAKVFDGLGNAPVHMDVAIKGQQIVALGELSAYQATEEVNADGLCLAPGFIDVHTHDDLEVLRNPEMAAKISQGVTTVITGNCGISAAPAELANDAPDPMNLLGEKAEFKFAQLRDYIDAYKVQKANVNVAALVGHTTLRNNVMADLLRPATAAEITLMQQQLDLALSQGALGLSTGLAYKNANQAPSSEVHAFGEVLKKHDALYTTHLRTEFDAVLDAMDEAFAMEQAFDIKVIISHLKCAGKNNWGRAPELLAKFSEQGEHSKCSCDAYPYAASSSTLDLNAVTDDFDIFITWSDSHPEMAEQLLADIAKQWGISLLDAAKQLQPAGAVYHGLNEDDVKTILAFDKTMIGSDGLPCDPHPHPRLWGSFPRVLGHYSREQGIFSLATAIHKMTGLSAANYRLANRGVIKVGHFADLVLFDADEIIDNATFVESALPASGIHQVWTNGQTTFKDKRVLPAYSGQFLTSLGASKHD
notes: as for B1
**Q.** Which results are given for B3?
**A.** Km [5]: 59.7 ± 5.0 mM; Vmax [5]: 7.7 µmol/min/mg; kcat [5]: 6.8 ± 0.6 s⁻¹

B4: PpOngB (Pseudoalteromonas prydzensis; Q298N) (protein)
chain: MQYDISQPVDTIIYQAKVFDGLGNAPVHMDVAIKGQQIVALGELSAYQATEEVNADGLCLAPGFIDVHTHDDLEVLRNPEMAAKISQGVTTVITGNCGISAAPAELANDAPDPMNLLGEKAEFKFAQLRDYIDAYKVQKANVNVAALVGHTTLRNNVMADLLRPATAAEITLMQQQLDLALSQGALGLSTGLAYKNANQAPSSEVHAFGEVLKKHDALYTTHLRTEFDAVLDAMDEAFAMEQAFDIKVIISHLKCAGKNNWGRAPELLAKFSEQGEHSKCSCDAYPYAASSSTLDLNNVTDDFDIFITWSDSHPEMAEQLLADIAKQWGISLLDAAKQLQPAGAVYHGLNEDDVKTILAFDKTMIGSDGLPCDPHPHPRLWGSFPRVLGHYSREQGIFSLATAIHKMTGLSAANYRLANRGVIKVGHFADLVLFDADEIIDNATFVESALPASGIHQVWTNGQTTFKDKRVLPAYSGQFLTSLGASKHD
notes: as for B1
**Q.** Which results are given for B4?
**A.** Km [5]: 53.4 ± 2.5 mM; Vmax [5]: 9.4 µmol/min/mg; kcat [5]: 8.3 ± 0.3 s⁻¹

B5: PpOngB (Pseudoalteromonas prydzensis; S292T) (protein)
chain: MQYDISQPVDTIIYQAKVFDGLGNAPVHMDVAIKGQQIVALGELSAYQATEEVNADGLCLAPGFIDVHTHDDLEVLRNPEMAAKISQGVTTVITGNCGISAAPAELANDAPDPMNLLGEKAEFKFAQLRDYIDAYKVQKANVNVAALVGHTTLRNNVMADLLRPATAAEITLMQQQLDLALSQGALGLSTGLAYKNANQAPSSEVHAFGEVLKKHDALYTTHLRTEFDAVLDAMDEAFAMEQAFDIKVIISHLKCAGKNNWGRAPELLAKFSEQGEHSKCSCDAYPYAASSTTLDLNQVTDDFDIFITWSDSHPEMAEQLLADIAKQWGISLLDAAKQLQPAGAVYHGLNEDDVKTILAFDKTMIGSDGLPCDPHPHPRLWGSFPRVLGHYSREQGIFSLATAIHKMTGLSAANYRLANRGVIKVGHFADLVLFDADEIIDNATFVESALPASGIHQVWTNGQTTFKDKRVLPAYSGQFLTSLGASKHD
notes: as for B1
**Q.** Which results are given for B5?
**A.** Km [5]: 54.2 ± 1.8 mM; Vmax [5]: 1.3 µmol/min/mg; kcat [5]: 1.1 ± 0.1 s⁻¹
